Among the data in the Human Domainome abundance scans (Beltran et al. 2025) are abundance fitness values, retold here.

± gives the uncertainty stated by the source.

B1: Homeobox expressed in ES cells 1, residues 110 to 165; numbered along this chain, Q9UBX0 (parent)
chain: RPRTAFTQNQIEVLENVFRVNCYPGIDIREDLAQKLNLEEDRIQIWFQNRRAKLKR

This data set covers variants of B1. The experiment in a line: abundance fitness (aPCA) (normalised: wild type 0, dead -1); higher = more abundant; growth selection in yeast, the domain comes from the species named. The settings on record: Homo sapiens.
Take D27M: the abundance fitness was -0.134 ± 0.1.

Take D27P: the abundance fitness was -0.128 ± 0.22.

As to D27K, the abundance fitness is -0.185 ± 0.16.

As for D27L, the abundance fitness is -0.271 ± 0.14.

As to D27H, the abundance fitness was -0.503 ± 0.38.

For D27I, the abundance fitness was -0.484 ± 0.43.

Regarding D27G, the abundance fitness was -0.02 ± 0.07.

Take D27W: the abundance fitness is -0.526 ± 0.18.

For D27E, the abundance fitness is 0.075 ± 0.091.

Regarding D27S, the abundance fitness is 0.233 ± 0.091.

Turning to D27Q, the abundance fitness came out at 0.203 ± 0.23.

D27V: the abundance fitness was -0.314 ± 0.086.

In the case of D27A, the abundance fitness is -0.259 ± 0.15.

For D27C, the abundance fitness is -0.155 ± 0.081.

For D27R, the abundance fitness worked out at 0.137 ± 0.1.

In the case of D27N, the abundance fitness is 0.034 ± 0.38.

For Q34S, the abundance fitness was -0.197 ± 0.13.

With Q34E, the abundance fitness was -0.076 ± 0.087.

As for Q34R, the abundance fitness was found to be 0.135 ± 0.095.

In the case of Q34Y, the abundance fitness is -0.347 ± 0.32.

On to Q34T, for which the abundance fitness worked out at 0.046 ± 0.064.

Q34N: the abundance fitness is -0.216 ± 0.26.

As to Q34D, the abundance fitness is -0.234 ± 0.17.

Turning to Q34K, the abundance fitness was -0.119 ± 0.18.

Regarding Q34A, the abundance fitness is -0.423 ± 0.17.

For Q34H, the abundance fitness is -0.129 ± 0.16.

In the case of Q34I, the abundance fitness was -0.106 ± 0.4.

For Q34G, the abundance fitness was -0.168 ± 0.074.

With Q34L, the abundance fitness is -0.157 ± 0.12.

For the variant E30F, the abundance fitness was found to be 0.048 ± 0.17.

In the case of E30K, the abundance fitness came to 0.169 ± 0.28.

As to E30W, the abundance fitness is -0.002 ± 0.2.

For E30C, the abundance fitness is -0.063 ± 0.091.

With E30M, the abundance fitness was -0.189 ± 0.23.

E30D: the abundance fitness is -0.18 ± 0.18.

E30H: the abundance fitness is 0.234 ± 0.15.

For the variant E30I, the abundance fitness came to 0.099 ± 0.12.

Take E30P: the abundance fitness was -0.781 ± 0.41.

Turning to E30L, the abundance fitness was determined as 0.134 ± 0.083.

With E30Y, the abundance fitness is -0.544 ± 0.33.

As for E30V, the abundance fitness is -0.186 ± 0.073.

As to E30G, the abundance fitness was -0.131 ± 0.083.

For the variant E30A, the abundance fitness was -0.023 ± 0.1.

Regarding E30N, the abundance fitness was found to be 0.514 ± 0.16.

In the case of E30S, the abundance fitness is -0.209 ± 0.15.

Consider E30R, for which the abundance fitness stood at 0.196 ± 0.1.

As to P24G, the abundance fitness was -0.641 ± 0.17.

As to P24R, the abundance fitness was -0.995 ± 0.23.

Take P24C: the abundance fitness was -1.09 ± 0.24.

As to P24W, the abundance fitness is -0.896 ± 0.17.

As to P24V, the abundance fitness was -0.793 ± 0.15.

As for P24E, the abundance fitness is -0.644 ± 0.34.

P24K: the abundance fitness was 0.273 ± 0.27.

As for P24Y, the abundance fitness was -0.366 ± 0.37.

Turning to P24I, the abundance fitness was -0.662 ± 0.23.

For P24L, the abundance fitness is -0.392 ± 0.25.

For the variant P24M, the abundance fitness was -0.815 ± 0.14.

In the case of P24D, the abundance fitness was -0.606 ± 0.39.

P24Q: the abundance fitness was -0.314 ± 0.23.

As to G25W, the abundance fitness is -0.755 ± 0.11.

As to G25C, the abundance fitness was -0.282 ± 0.25.

For G25Q, the abundance fitness was -0.744 ± 0.4.

Regarding G25T, the abundance fitness is -0.027 ± 0.12.

Turning to G25P, the abundance fitness came to 0.187 ± 0.13.

On to G25S, for which the abundance fitness was -0.106 ± 0.16.

On to G25Y, for which the abundance fitness is -0.741 ± 0.1.

For G25V, the abundance fitness is -1.11 ± 0.38.

Consider G25E, for which the abundance fitness is -0.065 ± 0.14.

For the variant G25L, the abundance fitness is -0.874 ± 0.28.

As for G25K, the abundance fitness worked out at 0.11 ± 0.19.

On to G25M, for which the abundance fitness was -0.688 ± 0.21.

Regarding G25H, the abundance fitness came out at 0.151 ± 0.25.

Regarding G25A, the abundance fitness is -0.079 ± 0.16.

For the variant L32A, the abundance fitness is -0.832 ± 0.17.

With L32D, the abundance fitness was -0.826 ± 0.45.

Consider L32T, for which the abundance fitness was -0.495 ± 0.24.

With L32K, the abundance fitness was -0.833 ± 0.18.

In the case of L32M, the abundance fitness is -0.689 ± 0.23.

Turning to L32Q, the abundance fitness is -0.487 ± 0.41.

Turning to L32F, the abundance fitness was -0.757 ± 0.24.

Take L32R: the abundance fitness is -0.886 ± 0.1.

As for L32I, the abundance fitness is -0.363 ± 0.4.

For L32V, the abundance fitness was -0.685 ± 0.13.

As to L32S, the abundance fitness is -0.787 ± 0.14.

As to L32W, the abundance fitness is -0.386 ± 0.17.

For the variant L32G, the abundance fitness is -0.904 ± 0.12.

L32E: the abundance fitness is -0.824 ± 0.45.

In the case of L32P, the abundance fitness is -0.884 ± 0.46.

Regarding A33W, the abundance fitness was -0.694 ± 0.16.

For the variant A33S, the abundance fitness was -0.124 ± 0.09.

Regarding A33C, the abundance fitness was -0.186 ± 0.31.

Take A33E: the abundance fitness is -0.848 ± 0.29.

In the case of A33I, the abundance fitness was -0.703 ± 0.2.

A33Q: the abundance fitness was found to be 0.36 ± 0.48.

Take A33L: the abundance fitness is -0.89 ± 0.1.

In the case of A33V, the abundance fitness was -0.363 ± 0.16.

A33Y: the abundance fitness is -0.396 ± 0.23.

As for A33M, the abundance fitness was -0.252 ± 0.33.

As to A33G, the abundance fitness is -0.242 ± 0.079.

For A33K, the abundance fitness was -0.566 ± 0.33.

On to R29K, for which the abundance fitness was -0.691 ± 0.28.

Regarding R29E, the abundance fitness was -1.23 ± 0.44.

As to R29D, the abundance fitness was -0.749 ± 0.22.

On to R29L, for which the abundance fitness is -0.222 ± 0.15.

Regarding R29M, the abundance fitness stood at 0.303 ± 0.33.

For the variant R29I, the abundance fitness is -0.2 ± 0.17.

On to R29P, for which the abundance fitness is -0.708 ± 0.1.

In the case of R29F, the abundance fitness is -0.198 ± 0.18.

For the variant R29W, the abundance fitness is -0.18 ± 0.15.

As to R29G, the abundance fitness was -0.704 ± 0.17.

Consider R29C, for which the abundance fitness was -0.019 ± 0.13.

For R29N, the abundance fitness is -0.864 ± 0.47.

Regarding R29A, the abundance fitness is -0.093 ± 0.12.

Turning to R29Y, the abundance fitness is -0.284 ± 0.18.

For the variant R29S, the abundance fitness was -0.709 ± 0.17.

Turning to R29T, the abundance fitness was found to be 0.183 ± 0.16.

R29V: the abundance fitness amounted to 0.011 ± 0.096.

Turning to R29Q, the abundance fitness was -0.299 ± 0.32.

Take D31Y: the abundance fitness is -0.158 ± 0.21.

Consider D31V, for which the abundance fitness was -0.425 ± 0.09.

D31K: the abundance fitness turned out to be 0.679 ± 0.15.

Consider D31P, for which the abundance fitness is -0.675 ± 0.36.

On to D31R, for which the abundance fitness was -0.032 ± 0.056.

For the variant D31C, the abundance fitness was -0.468 ± 0.16.

Take D31L: the abundance fitness is -0.411 ± 0.087.

Turning to D31N, the abundance fitness came out at 0.066 ± 0.15.

As for D31F, the abundance fitness is 0.535 ± 0.19.

D31T: the abundance fitness is -0.568 ± 0.41.

For the variant D31A, the abundance fitness was -0.106 ± 0.14.

Regarding D31I, the abundance fitness amounted to 0.221 ± 0.4.

Regarding D31W, the abundance fitness is -0.532 ± 0.2.

On to D31M, for which the abundance fitness was -0.32 ± 0.25.

As to Y23V, the abundance fitness is -0.546 ± 0.21.

In the case of Y23W, the abundance fitness is -0.063 ± 0.091.

In the case of Y23T, the abundance fitness was -0.137 ± 0.2.

Consider Y23S, for which the abundance fitness was -0.04 ± 0.092.

With I28E, the abundance fitness was -0.176 ± 0.14.

As for I28Q, the abundance fitness was -0.171 ± 0.14.

In the case of I28S, the abundance fitness is -0.505 ± 0.091.

As for I28M, the abundance fitness was -0.655 ± 0.27.

As for I28P, the abundance fitness was -0.725 ± 0.19.

Consider I28L, for which the abundance fitness was -0.209 ± 0.14.

I28Y: the abundance fitness was -0.309 ± 0.23.

On to I28G, for which the abundance fitness was -0.692 ± 0.21.

With I28A, the abundance fitness was -0.089 ± 0.16.

As to I28W, the abundance fitness was -0.577 ± 0.17.

Turning to I28V, the abundance fitness was 0.045 ± 0.13.

As for I28K, the abundance fitness was -0.852 ± 0.33.

Take I28R: the abundance fitness was -0.667 ± 0.16.

Regarding I28C, the abundance fitness was -0.534 ± 0.41.

As to I26D, the abundance fitness was -0.297 ± 0.11.

Consider I26E, for which the abundance fitness is -0.19 ± 0.19.

Take I26C: the abundance fitness is -0.218 ± 0.15.

On to I26M, for which the abundance fitness is -0.38 ± 0.3.

For I26T, the abundance fitness is -0.341 ± 0.14.

For I26K, the abundance fitness came out at 0.305 ± 0.14.

On to I26Q, for which the abundance fitness came out at 0.013 ± 0.14.

As to I26F, the abundance fitness was -0.08 ± 0.2.

Take I26A: the abundance fitness was -0.057 ± 0.14.

I26S: the abundance fitness was -0.078 ± 0.094.

As for I26Y, the abundance fitness was -0.159 ± 0.066.

As for I26G, the abundance fitness was -0.319 ± 0.16.

On to I26P, for which the abundance fitness was 0.054 ± 0.21.

Consider I26R, for which the abundance fitness worked out at 0.002 ± 0.088.

For the variant I26N, the abundance fitness turned out to be 0.226 ± 0.23.

For I26W, the abundance fitness is -0.138 ± 0.13.

Turning to I26L, the abundance fitness was found to be 0.151 ± 0.12.
